From article PMC10117100

Biological target: Gluc1-E2F4 (human), Q16254
Test: split reporter (BiFC, NanoBiT); Gaussia princeps protein complementation assay (GPCA): Gluc1 and Gluc2 N-terminal fusions co-transfected in HEK293T, luminescence of lysates after 48 h as normalized luminescence ratio (NLR); pairs count as interacting if NLR is above 5
Conditions: remark: other sources report otherwise

Gluc1-E2F4 (human), Q16254, sequence (Q16254 whole entry, the tested form may be a part): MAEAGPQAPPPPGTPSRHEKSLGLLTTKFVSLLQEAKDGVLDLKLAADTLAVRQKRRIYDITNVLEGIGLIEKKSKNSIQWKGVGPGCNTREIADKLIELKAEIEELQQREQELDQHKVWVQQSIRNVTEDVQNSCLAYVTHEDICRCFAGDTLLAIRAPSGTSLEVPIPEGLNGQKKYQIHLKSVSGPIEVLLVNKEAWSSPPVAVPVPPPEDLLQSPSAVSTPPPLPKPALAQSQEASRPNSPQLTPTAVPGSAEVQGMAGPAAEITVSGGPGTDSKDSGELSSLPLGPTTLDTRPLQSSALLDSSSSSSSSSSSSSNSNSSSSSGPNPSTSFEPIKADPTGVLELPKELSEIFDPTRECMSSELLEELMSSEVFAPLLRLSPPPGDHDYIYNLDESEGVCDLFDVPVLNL

normalized luminescence ratio (NLR): > 40
B1: Gluc2-p130, Q08999 1-1139 (natural protein)
chain: MPSGGDQSPPPPPPPPAAAASDEEEEDDGEAEDAAPPAESPTPQIQQRFDELCSRLNMDEAARAEAWDSYRSMSESYTLEGNDLHWLACALYVACRKSVPTVSKGTVEGNYVSLTRILKCSEQSLIEFFNKMKKWEDMANLPPHFRERTERLERNFTVSAVIFKKYEPIFQDIFKYPQEEQPRQQRGRKQRRQPCTVSEIFHFCWVLFIYAKGNFPMISDDLVNSYHLLLCALDLVYGNALQCSNRKELVNPNFKGLSEDFHAKDSKPSSDPPCIIEKLCSLHDGLVLEAKGIKEHFWKPYIRKLYEKKLLKGKEENLTGFLEPGNFGESFKAINKAYEEYVLSVGNLDERIFLGEDAEEEIGTLSRCLNAGSGTETAERVQMKNILQQHFDKSKALRISTPLTGVRYIKENSPCVTPVSTATHSLSRLHTMLTGLRNAPSEKLEQILRTCSRDPTQAIANRLKEMFEIYSQHFQPDEDFSNCAKEIASKHFRFAEMLYYKVLESVIEQEQKRLGDMDLSGILEQDAFHRSLLACCLEVVTFSYKPPGNFPFITEIFDVPLYHFYKVIEVFIRAEDGLCREVVKHLNQIEEQILDHLAWKPESPLWEKIRDNENRVPTCEEVMPPQNLERADEICIAGSPLTPRRVTEVRADTGGLGRSITSPTTLYDRYSSPPASTTRRRLFVENDSPSDGGTPGRMPPQPLVNAVPVQNVSGETVSVTPVPGQTLVTMATATVTANNGQTVTIPVQGIANENGGITFFPVQVNVGGQAQAVTGSIQPLSAQALAGSLSSQQVTGTTLQVPGQVAIQQISPGGQQQKQGQSVTSSSNRPRKTSSLSLFFRKVYHLAAVRLRDLCAKLDISDELRKKIWTCFEFSIIQCPELMMDRHLDQLLMCAIYVMAKVTKEDKSFQNIMRCYRTQPQARSQVYRSVLIKGKRKRRNSGSSDSRSHQNSPTELNKDRTSRDSSPVMRSSSTLPVPQPSSAPPTPTRLTGANSDMEEEERGDLIQFYNNIYIKQIKTFAMKYSQANMDAPPLSPYPFVRTGSPRRIQLSQNHPVYISPHKNETMLSPREKIFYYFSNSPSKRLREINSMIRTGETPTKKRGILLEDGSESPAKRICPENHSALLRRLQDVANDRGSH
